From IntAct's records for PubMed 22493223 come the findings set out here.

First the molecules themselves.
B1: Mitotic spindle assembly checkpoint protein MAD1 (Homo sapiens), Q9Y6D9 (parent)
chain: MEDLGENTMVLSTLRSLNNFISQRVEGGSGLDISTSAPGSLQMQYQQSMQLEERAEQIRSKSHLIQVEREKMQMELSHKRARVELERAASTSARNYEREVDRNQELLTRIRQLQEREAGAEEKMQEQLERNRQCQQNLDAASKRLREKEDSLAQAGETINALKGRISELQWSVMDQEMRVKRLESEKQELQEQLDLQHKKCQEANQKIQELQASQEARADHEQQIKDLEQKLSLQEQDAAIVKNMKSELVRLPRLERELKQLREESAHLREMRETNGLLQEELEGLQRKLGRQEKMQETLVGLELENERLLAKLQSWERLDQTMGLSIRTPEDLSRFVVELQQRELALKDKNSAVTSSARGLEKARQQLQEELRQVSGQLLEERKKRETHEALARRLQKRVLLLTKERDGMRAILGSYDSELTPAEYSPQLTRRMREAEDMVQKVHSHSAEMEAQLSQALEELGGQKQRADMLEMELKMLKSQSSSAEQSFLFSREEADTLRLKVEELEGERSRLEEEKRMLEAQLERRALQGDYDQSRTKVLHMSLNPTSVARQRLREDHSQLQAECERLRGLLRAMERGGTVPADLEAAAASLPSSKEVAELKKQVESAELKNQRLKEVFQTKIQEFRKACYTLTGYQIDITTENQYRLTSLYAEHPGDCLIFKATSPSGSKMQLLETEFSHTVGELIEVHLRRQDSIPAFLSSLTLELFSRQTVA

The assay covers variants of B1. Conditions: with md2l1_human MAD2L1, Q13257.
Sequence of md2l1_human MAD2L1, Q13257 (Q13257 whole entry): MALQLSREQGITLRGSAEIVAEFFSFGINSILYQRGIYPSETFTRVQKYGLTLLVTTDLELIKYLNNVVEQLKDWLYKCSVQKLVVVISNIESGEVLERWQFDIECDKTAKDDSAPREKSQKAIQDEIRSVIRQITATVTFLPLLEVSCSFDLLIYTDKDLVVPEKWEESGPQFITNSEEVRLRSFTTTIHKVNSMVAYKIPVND
Regarding K541A;V542A;L543A;H544A;M545A, the “effect of a mutation on the interaction” value is given as “disrupting interaction strength”.
